test: soluble on expression in E. coli; label from the status in PepcDB or PDB records

Sequence	soluble on expression in E. coli
DTVKIDANVNYQIIQGFGGMSGVGWINDLTTEQINTAYGSGVGQIGLSIMRVRIDPDSSKWNIQLPSARQAVSLGAKIMATPWSPPAYMKSNNSLINGGRLLPANYSAYTSHLLDFSKYMQTNGAPLYAISIQNEPDWKPDYESCEWSGDEFKSYLKSQGSKFGSLKVIVAESLGFNPALTDPVLKDSDASKYVSIIGGHLYGTTPKPYPLAQNAGKQLWMTEHYVDSKQSANNWTSAIEVGTELNASMVSNYSAYVWWYIRRSYGLLTEDGKVSKRGYVMSQYARFVRPGALRIQATENPQSNVHLTAYKNTDGKMVIVAVNTNDSDQMLSLNISNANVTKFEKYSTSASLNVEYGGSSQVDSSGKATVWLNPLSVTTFVSK	soluble
MSDAAKPDRPDEALVLEYDFDAPPAKVWRAVTIPALRERWSPDCDLAGAEPESTIAGEEVRYRLRDSEPPFRESHVIFRIEPNEDGGTRFRIIQQACDDLAKLPQPANTNCRLMMAALEHHHHHH	soluble
MGSDKIHHHHHHMPLDVDHLRIPALPQLFMELQNALGQPHVSYERIAAIVSKDPRLTASLLKLVNSPHFGFSTPIETVSRAVAASGIRRVSALALGTFVLGLYRERPPLVVDIQGFWLHSVGCGIAARLLAQRLGRSDPERFFVAGLLHDMGWLALCSAAPDRAERIVRRIQSTGCSCEEAERLELGTTHAELGATVLKTWNLPAFLIDVVRSHHAPLATVGDNPPVDGALEVHIADAVVKGMGIGGALDARIAPLDLDAVDTLGLSGHDIAAMTNGLVEQSQALSRLLQGD	not soluble
MAANEGNQPIPPEEEKEISSLLESIKIGKTSLKYRCFYLYDDKMTDLTEEQKETLKKLKLYQKEYYDYESKFEYELFLLRQKYHDLYGPIYDKRREALVGNGEAKIGTPNLPEFWLRALRNNNTVSHVIEDHDEEILVYLNDIRCDYIKKNKEKKEGFILSFYFATNPFFSNSVLTKTYHMKCVDCDNEPVLLHTEATVIDWYDNKNILKKNVVKKQHNKNSREVKTVQQTVNRDSFFHFFTSHKVPNSNVIKQLSKHEVAQLEMIIEGDYEVALTIKERIIPYAVDYYLGIIIESESNSIVSDVDSSYSSSENNSNYNSYESNNSAYNDENSNVDTNEYDDNEEEEEGAKSNEDPLTS	soluble
MDASYSSSRPKKLNYTSYTSLKSVLKFLSVKKREQIHIHIPELRSVNALLPYAHEEVILDKFEIMIQNRSYLFKKLAEKAPKPEGVARRRPEYEYAEYNRLLVMDLGPPSLFDMNDLHHLWRPMGNQGPDRLSFGDLDSLEKRRLRFRRENRLQDSSEHGRTGNCEITISEEDGTAITVTKEIPVDIAYEKIFDAFFSNGSRIKLLKVQSFPDFLMRKDLLTLKVREIDCSSTASIDILELAPFLDHSSLKKLTLNVTNTNVDLLMLPLVQNCPVLRIVEAGTFLSRMLKTTLLSALQNQKLEIFPDIVIIESFPQLVQSWATSSRPIGSLVQVGIREDYKEVLDILDFLKESHGAHPAIIKKLENTDFSNGLSMLIDGDLELAIYGGGKISEEGLTRPQPCKWSLCMEVMKRGDTIPR	not soluble
MFKRVHLIVLDSVGIGEAPDAEKFGDVGSDTLGHIAKEAGLTIPHLEKLGLGTIAPLTGVKAVADHDGYATKLEEISVGKDTMTGHWEIMGLNIKKPFRVFPNGFPEELLKQIEDFSGRKVVCNKPYSGTAVIDDYGEHQMKTGDLIVYTSADPVLQIAAHEDIIPLEELYKICQYVRDITKDEPYMIGRIIARPYVGEPGNFTRTSNRHDYALDPFGHTVLDSLKENGNDVIAVGKINDIFNGQGITEAIRTKSNMDGVDQLLTVMNKEFTGLSFTNLVDFDALYGHRRDVKGYAKAIEDFDGRLPEIMAAMAEDDLLLITADHGNDPTFPGTDHTREYVPLLAYSKKMTKQGSLPQGFYSDISATIAENFEVPATENGQSFLNQLQ	not soluble
NPQTSVSNTGKEADATKNQTSKADQVSAPYEGTGKTSKSLYGGQTELEKNIQTLQPSSIIGTDERTRISSTTSFPYRATVQLSIKYPNTSSTYGCTGFLVNPNTVVTAGHCVYSQDHGWASTITAAPGRNGSSYPYGTYSGTMFYSVKGWTESKDTNYDYGAIKLNGSPGNTVGWYGYRTTNSSSPVGLSSSVTGFPCDKTFGTMWSDTKPIRSAETYKLTYTTDTYGCQSGSPVYRNYSDTGQTAIAIHTNGGSSYNLGTRVTNDVFNNIQYWANQ	not soluble

From the DeepSol protein solubility set
